This is an account of results in the DeepSol protein solubility set.

A short description of the data set: soluble on expression in E. coli; label from the status in PepcDB or PDB records.
With “MGSDKIHHHHHHMFLNLIATAGNDRIRDFLVNDWYRSLKENVDLSKTDVLVINYGLTGLPKEVINFPAVERSGLINNTRFINLAIFLENHPEYDQILFCDGGDIIFQSDISHLFEEHRDAFRAVVEQLSPPIDLVVKEEDLVNGKEIKSFLSNKKLFNVGVIIAPREGFLELARTMERRLKNINVWGGDTVIGNYVIYKNPHVELPSKYNFIPSTAREKFYVKDSKFYLENGELIPIVHNAGRYRFLRPVKDFGYGPGKNRVNKFNIWMFRMLFSVSNFLKMK”, the “soluble on expression in E. coli” value is “not soluble”.

Turning to “MGSDKIHHHHHHKPGREFYASDIRESMEKGDKLAILMVHFGSAYPEARTQVLDVMNKRVKEAFPDVEVRQAYSARSVVSRLRAQGVWVQLPADALVELRDQGFTHVIIQPTIIIEGVEMEAIRKEAEQRKGLFKDLRVGNPLLYDDADYEAVMKAVSSPSGVTKNGAKLLVAHGTYHASNSAYAKLGYMFQTKGMKDYYTGTREGFPTIENVGEQMRQAGHKRVQLIPFMFVLIRGTENTVTDFWQKGLRQQGFDVDIYLKPLGENPAIRSLFIDHIRFAMKYKRATIFDRKKLYTH”, the “soluble on expression in E. coli” value is on record as “not soluble”.

“MGSDKIHHHHHHVKIAIASDHAAFELKEKVKNYLLGKGIEVEDHGTYSEESVDYPDYAKKVVQSILSNEADFGILLCGTGLGMSIAANRYRGIRAALCLFPDMARLARSHNNANILVLPGRLIGAELAFWIVDTFLSTPFDGGRHERRIRKIDEV”: the “soluble on expression in E. coli” value was “soluble”.

With “MGSDKIHHHHHHLANLGFDFSPDFRPLAARMRPRVLSEYIGQSHLLGEGKALRVALEANRAHSMLLWGPPGTGKTTLAELIAHYANAHVERISAVSSGVKDIRAAIEQAKAVAQSRGQRTLLFVDEVHRFNKSQQDAFLPYIEDGTVIFVGATTENPSFELNNALLSRARVYLIHKLTETEITEIIIQALEDTERGLGKRQLIIPPEVMAELTHVSDGDARKALNLIELMSDLVADGDAVNLEMLSQVVGHKAAGYDKNGDQFYDLISAVHKSIRGSAPDAALYWFCRILEGGGDPLYVARRLLAIASEDIGNADPVAMTVALNAWDCFHRVGPAEGERAIAQAVLYLASAPKSNAVYTAFSAARELAHATGHEAVPNHLRNAPTKLMKTLAVGEGYRYAHDEPNAYAAGECYLPPSLEGQQFYQPTERGFEKRIKEKLAQLNQLDGHSRVKRYD”, the “soluble on expression in E. coli” value is recorded as “not soluble”.

On to “MEEHYYVSIDIGSSSVKTIVGEKFHNGINVIGTGQTYTSGIKNGLIDDFDIARQAIKDTIKKASIASGVDIKEVFLKLPIIGTEVYDESNEIDFYEDTEINGSHIEKVLEGIREKNDVQETEVINVFPIRFIVDKENEVSDPKELIARHSLKVEAGVIAIQKSILINMIKCVEACGVDVLDVYSDAYNYGSILTATEKELGACVIDIGEDVTQVAFYERGELVDADSIEMAGRDITDDIAQGLNTSYETAEKVKHQYGHAFYDSASDQDIFTVEQVDSDETVQYTQKDLSDFIEARVEEIFFEVFDVLQDLGLTKVNGGFIVTGGSANLLGVKELLSDMVSEKVRIHTPSQMGIRKPEFSSAISTISSSIAFDELLDYVTINYHDNEETEEDVIDVKDKDNESKLGGFDWFKRKTNKKDTHENEVESTDEEIYQSEDNHQEHKQNHEHVQDKDKDKEESKFKKLMKSLFE”, for which the “soluble on expression in E. coli” value is “not soluble”.

As for “MAAPLGGMFSGQPPGPPQAPPGLPGQASLLQAAPGAPRPSSSTLVDELESSFEACFASLVSQDYVNGTDQEEIRTGVDQCIQKFLDIARQTECFFLQKRLQLSVQKPEQVIKEDVSELRNELQRKDALVQKHLTKLRHWQQVLEDINVQHKKPADIPQGSLAYLEQASANIPAPLKPTLEHHHHHH”, the “soluble on expression in E. coli” value is reported as “not soluble”.

As to “MPTFTLRPYTEADEDPAIALWLRTWQLAYPAIDFTKRVDWWRERWRTELVPQAAIIVAEQDSALIGFVTIDAVGYLDQLVVEPEHWGWGVAEALVDEAKQRSPTEVTLKVNADNYRAIKFYRRNGFAVTSEELNSSGRPVLNMLWRPA”, the “soluble on expression in E. coli” value is recorded as “not soluble”.

Take “MQFNNKPLIGVVHLPPLPGSPGYKGELDEVIDRAISDAAKYQEAGFDAIILENYGDFPYSKTVGKETVSAFSVVANEVKREIALPLGINVLRNDCIAAYSIAYSIKADFIRVNVLTGVAFTDQGIVEGCARELAELRTRLPSRIDVLADVHVKHATHFSNFENALLDTIERGGADAVIVTGSRTGSEVDIQELITAKRISPVPVLVGSGVNPRNIKLFWRYSDGFIVGTWVKEGGRTINEVSIERATKLAKLVKSLREGLEHHHHHH”: the “soluble on expression in E. coli” value is on record as “not soluble”.

As to “PKYQANTQILVNQTKGDNPQFMAQEVQSNIQLVNTYKEIVKSPRILDEVSKDLNDKYSPSKLSSMLTITNQENTQLINIQVKSGHKQDSEKIANSFAKVTSKQIPKIMSVDNVSILSKADGTAVKVAPKT”, the “soluble on expression in E. coli” value is reported as “not soluble”.

Consider “MGSDKIHHHHHHMTICYNFAYLDEGTKKKIRRTLLKAVAIPGHQIPFASREMPLPYGWGTGGIQVTAAVIGPEDILKVIDQGSDDTTNAVSIRNFFRSTTGVRTTTSTREATLIQTRHRIPETPLHAGQMLIYQVPMPEPLFKLEPRVSETIALHAMADYSLMYLKLYDQITRYGRIAIGYEYPVIVHDRYLTSSSPIPAYDVPKMHMSPALQLFGAGREKRLYAIPPYTRVIPLDFTDYPFDPVNTWQPCALCGAVESYKDEIVIDDAGNRQFICSDTDFCEHRR”, for which the “soluble on expression in E. coli” value is listed as “not soluble”.

In the case of “MARTRSADYENIRDTIIERAAAMFARQGYSETSIGDIARACECSKSRLYHYFDSKEAVLRDMLTTHVDSLLERCRQVLYGSNEPKTRFLQIVKLFLEIYATSRDRHVVMLTCLDALPEDQRKALIAKQRELIAYVRDALLQLRPDMAANRTLAHVDTMLFFGMINWTYTWYKADGSVSPDALAERTVQLFLDGYLNLLSA”, the “soluble on expression in E. coli” value was “soluble”.

As to “MQQNIRIQKNQYDTATHPTASSTTWKYVTYDETSETFGMSEQVADPCNHCPKPRNYNSECKDEDVEKHFEKVMPCVHTYTIIYGNVHHLPNHPIIRNLRHNHY”, the “soluble on expression in E. coli” value was “soluble”.

In the case of “MIAEFESRILALIDGMVDHASDDELFASGYLRGHLTLAIAELESGDDHSAQAVHTTVSQSLEKAIGAGELSPRDQALVTDMWENLFQQASQL”, the “soluble on expression in E. coli” value is on record as “not soluble”.

For the sequence “MSLAYTIKKVEKETKISAHTLRFWAKKGLFPFVQKDENSVKYFSKSDIEWVKWIEWLRISGMPIEQVKHYIKLCSLGIKTAKERQEMLKQTKKKLQNQIKTLKESEKVLSKKIKIYEEMLANEVDGFNPESKDYQPCDKLHKFKGEGHHHHHH”, the “soluble on expression in E. coli” value is “not soluble”.

With “MQIRNSHLYSASRLVQNTFNASSTKEAANTIAKNNESAALSATQTARTHEGDSKGKSSNGSRSHLRSMRYAAYLAGSAYLYDKTVNDFFLSTTSLNDGKQGFTSDARLQKAEKKAEANYHAYHNRANFGGVAPTRSSLLPKLCGENLFVTMLDFRAATKVHMKNLIDTKEAHDSIANNISCIMGERVKPELLKKHGIVQTPPDFDITKGASYDCKNKYSLSGVPNQETGSYGYASRSVSNPFIEKGENHHARAINSERALTPRNCVDALQPLLQKSERLSPEAQFRAGQALLILRPLYCSSENWGDAHKVLMPFLEKKGLVSSQENQKLGATRPFTQTDMEKGIARRNTSLAGPTLNKLNIFLQKSIYNKDEKAISDLTAKKLGEMKYIPIAHFKMNEDVSSFEDSSGLADSFTGYNVSAYINHARLLSGEDRLSKKDVIAIVGCLNAIYDNASSERHTLREIAHGCFVGAGYTVEDAEDFYNDACKAAATEFYGGRAINVQSQLYSSSVDKPDS”, the “soluble on expression in E. coli” value was “not soluble”.

As for “MSLEALFNPKSIAVIGASSKPGKIGYAIMKNLIEYGYEGKIYPVNIKGGEMEISGRKFKVYKSILEVPDEVDMAVIVVPAKSVPEVVEECGKKGVKVAPIISSGFGELGEEGKKVEQQLVETARKYGMRILGPNIFGVVYTPAKLNATFGPTDVLPGPLALISQSGALGIALMGWTILEKIGLSAVVSVGNKADIDDADLLEFFKDDENTKAILIYMEGVKDGRRFMEVAKEVSKKKPIIVIKAGRSERGAKAAASHTGSLAGSDTIYSAAFKQTGVLRALTIGEAFDWARALSNLPEPQGENVVIITNGGGIGVMATDAAEEEGLHLYDDLEQLKIFANHMPPFGSYKNPVDLTGMADAKSYEGAIRDALAHPDMHSIIVLYCQTAVLDPRELADVIIREYNESGRKKPLVVAIVGGIEAKQAIDVLNENGIPAYPEPERAVKALSALYKWSKWKAKHK”, the “soluble on expression in E. coli” value is listed as “soluble”.

As for VKVNPSVKPICDKCRLIRRHGRVMVICSDPRHKQRQG, the “soluble on expression in E. coli” value is listed as “not soluble”.

On to “MAHHHHHHMKFDKRECINVDLTSQISEQDVTQSVSKGEKKRDSLPQNEKESELSAEKESQMSQPKADEANLKRENSPLSEPNRKGTSVNKKNDCETSHTDKETNLKEYYKDLPTVIIVIGMAGSGKTTYVGSLYNYLKVEKKKKVYTMNLDPAVKYVQYPVNIDIRDSIKYHEIMKEYKLGPNGAIMTCLNLFATRFDKVIEILEKRKNKLHYIIVDTPGQIEVFNWSASGNIILETLSVSFPVVINYIIDTVRCERPITFMSNMLYACSVLYKARLPFLACFNKVDIIKHDKCIEWMKDYDSFNDDVIHDESYMASFSRSCALMINEFYEGIKTVGISSKTNEGFNSILKNLELLKEEYINEYVTSIEKQMKRIKRKKEKDIKLKMENLLIEKQKDLSSSKNKSVN”, for which the “soluble on expression in E. coli” value is given as “not soluble”.

As to “GPLGSKVDLFDFELPERLIAQVPLEQRDASRLMVLDKHTGELTDSSFKHIISFFNEGDCLVLNNTRVLPARLFGTKEDTGAKVELLLLKQETGDKWETLAKPAKRVKKGTVVTFGDGRLKAICTEELEHGGRKMEFQYDGIFYEVLESLGEMPLPPYIKEQLDDKERYQTVYSKEIGSAAAPTAGLHFTEEILQQLKDKGVQIEFITLHVGLGTFRPVSADEVEEHNMHAEFYQMSEETAAALNKVRENGGRIISVGTTSTRTLETIAGEHDGQFKASSGWTSIFIYPGYEFKAIDGMITNFHLPKSSLIMLVSALAGRENILRAYNHAVEEEYRFFSFGDAMLII”, the “soluble on expression in E. coli” value is “soluble”.

Regarding “MRGSHSGAQGLLAAQKARGLFKDFFPETGTKIELPELFDRGTASFPQTIYCGFDPTADSLHVGHLLALLGLFHLQRAGHNVIALVGGATARLGDPSGRTKEREALETERVRANARALRLGLEALAANHQQLFTDGRSWGSFTVLDNSAWYQKQHLVDFLAAVGGHFRMGTLLSRQSVQLRLKSPEGMSLAEFFYQVLQAYDFYYLFQRYGCRVQLGGSDQLGNIMSGYEFINKLTGEDVFGITVPLITSTTGAKLGKSAGNAVWLNRDKTSPFELYQFFVRQPDDSVERYLKLFTFLPLPEIDHIMQLHVKEPERRGPQKRLAAEVTKLVHGREGLDSAKRCTQALYHRSHHHHHH”, the “soluble on expression in E. coli” value is “soluble”.

As for “MKSFVLFALFSVAAAQFGGYGRGRGGPGGPGGFEGGPAGAGGFQGNGAGELTYEAKGRLICGLTGVDKVRVVLWDRFRGRENIIYDETNTDVVGNFRLRATRNGFDGNLIQPFLTIYHDCDDASTPGLRKMTVQLPPQYTNQGSLALKSFDIGTWNLETSFAGEELEIQNGGLGGRPIGGSSFGQGNRGQFGGNREIFAHGGRSDFGDSSISV”, the “soluble on expression in E. coli” value is “not soluble”.

As to “MLERTQVFVDTSYLLASFYNSWETGARAQLEIDLPEVVGVLGRMIEQQLKQPVQRQMWYDGIPDSGPHRYQRALRTCDGVQLRAGQLIEWGERRTQKAVDTRLVADLVLAGVRGQCSDIVLVSGDADMIPGVQEAANAGLRVHLYGFGWDSMSSQLRHCCDTTTILDPRED”, the “soluble on expression in E. coli” value is on record as “not soluble”.
